Key:
Human Clec12B (human) = Human Clec12B (human) (UniProt Q2HXU8); assay: flow, Jurkat, 100 nM Ab
Human Clec7A (human) = Human Clec7A (human) (UniProt Q9BXN2); assay: flow, Jurkat, 100 nM Ab
Human CD209 (human) = Human CD209 (human) (UniProt Q9NNX6); assay: flow, Jurkat, 100 nM Ab
Human Clec5A (human) = Human Clec5A (human) (UniProt Q9NY25); assay: flow, Jurkat, 100 nM Ab
Human KLRF2 (human) = Human KLRF2 (human) (UniProt D3W0D1); assay: flow, Jurkat, 100 nM Ab
Human Clec10A (human) = Human Clec10A (human) (UniProt Q8IUN9); assay: flow, Jurkat, 100 nM Ab
Human Clec10A (human), sequence (Q8IUN9 whole entry): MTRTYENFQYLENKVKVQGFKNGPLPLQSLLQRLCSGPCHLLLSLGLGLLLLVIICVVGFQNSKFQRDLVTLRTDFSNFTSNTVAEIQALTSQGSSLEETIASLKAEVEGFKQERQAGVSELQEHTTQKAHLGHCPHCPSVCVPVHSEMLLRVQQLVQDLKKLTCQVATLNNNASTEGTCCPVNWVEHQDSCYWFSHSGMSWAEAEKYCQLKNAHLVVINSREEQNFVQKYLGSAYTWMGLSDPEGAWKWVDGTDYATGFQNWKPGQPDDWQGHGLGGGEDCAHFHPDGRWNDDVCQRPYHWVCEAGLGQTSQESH

Human KLRF1 (human) = Human KLRF1 (human) (UniProt Q9NZS2); assay: flow, Jurkat, 100 nM Ab
Human KLRF1 (human), sequence (Q9NZS2 whole entry): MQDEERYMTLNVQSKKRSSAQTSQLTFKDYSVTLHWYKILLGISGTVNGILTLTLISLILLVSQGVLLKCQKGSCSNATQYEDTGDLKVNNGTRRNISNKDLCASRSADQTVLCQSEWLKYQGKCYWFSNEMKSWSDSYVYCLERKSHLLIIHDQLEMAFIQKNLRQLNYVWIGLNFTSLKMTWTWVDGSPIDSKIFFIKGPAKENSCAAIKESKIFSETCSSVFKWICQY

Human Clec9A (human) = Human Clec9A (human) (UniProt Q6UXN8); assay: flow, Jurkat, 100 nM Ab
Human Clec9A (human), sequence (Q6UXN8 whole entry): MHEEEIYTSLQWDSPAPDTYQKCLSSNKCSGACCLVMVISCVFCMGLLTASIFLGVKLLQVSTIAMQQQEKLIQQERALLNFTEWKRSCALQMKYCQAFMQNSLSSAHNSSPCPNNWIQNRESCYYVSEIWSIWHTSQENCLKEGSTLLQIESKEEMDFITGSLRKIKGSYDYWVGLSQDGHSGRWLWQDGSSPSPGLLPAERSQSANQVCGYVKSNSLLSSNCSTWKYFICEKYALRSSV

Human OLR1 (human) = Human OLR1 (human) (UniProt P78380); assay: flow, Jurkat, 100 nM Ab
human CD161 (human) [1] = biological target: human CD161 (human) (UniProt Q12918); assay: flow, Jurkat, 100 nM Ab
[2] = biological target: cynomolgus CD161 (cynomolgus); assay: flow, Jurkat, 100 nM Ab
cynomolgus CD161 (cynomolgus), sequence (chain, as listed by the source limits assumed): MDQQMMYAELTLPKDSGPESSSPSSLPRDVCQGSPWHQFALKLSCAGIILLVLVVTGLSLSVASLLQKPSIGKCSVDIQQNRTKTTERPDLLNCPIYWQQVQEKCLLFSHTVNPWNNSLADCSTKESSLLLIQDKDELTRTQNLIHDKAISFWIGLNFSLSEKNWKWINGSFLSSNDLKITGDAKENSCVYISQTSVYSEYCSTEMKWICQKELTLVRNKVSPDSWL

Human KLRG1 (human) = Human KLRG1 (human) (UniProt Q96E93); assay: flow, Jurkat, 100 nM Ab
Human KLRG1 (human), sequence (Q96E93 whole entry): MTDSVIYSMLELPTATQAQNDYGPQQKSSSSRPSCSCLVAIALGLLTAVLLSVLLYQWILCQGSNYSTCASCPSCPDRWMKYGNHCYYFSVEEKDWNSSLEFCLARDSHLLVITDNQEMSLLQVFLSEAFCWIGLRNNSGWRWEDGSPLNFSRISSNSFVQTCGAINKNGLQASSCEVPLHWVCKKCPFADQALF

Human CD94 (human) = Human CD94 (human) (UniProt Q13241); assay: flow, Jurkat, 100 nM Ab
Human CD94 (human), sequence (Q13241 whole entry): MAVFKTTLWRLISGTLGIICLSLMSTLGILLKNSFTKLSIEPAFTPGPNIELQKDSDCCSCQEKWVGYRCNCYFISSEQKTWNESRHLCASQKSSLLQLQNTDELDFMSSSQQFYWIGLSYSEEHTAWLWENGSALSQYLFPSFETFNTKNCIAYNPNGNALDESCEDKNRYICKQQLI

Human Clec4E (human) = Human Clec4E (human) (UniProt Q9ULY5); assay: flow, Jurkat, 100 nM Ab
Human Clec4E (human), sequence (Q9ULY5 whole entry): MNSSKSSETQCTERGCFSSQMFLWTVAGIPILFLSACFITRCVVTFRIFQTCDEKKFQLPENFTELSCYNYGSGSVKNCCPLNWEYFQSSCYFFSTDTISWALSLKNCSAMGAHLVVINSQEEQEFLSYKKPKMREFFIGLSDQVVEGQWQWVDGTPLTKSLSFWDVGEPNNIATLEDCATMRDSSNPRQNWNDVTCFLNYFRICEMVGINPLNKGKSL

human CD161 (human) [3] = biological target: human CD161 (human) (UniProt Q12918); assay: flow, Jurkat, Ab titration
[4] = biological target: cynomolgus CD161 (cynomolgus); assay: flow, Jurkat, Ab titration
human CD161 (human) [5] = biological target: human CD161 (human) (UniProt Q12918); assay: flow cytometry titration of antibody on Jurkat hCD161+ cells, fluorescent secondary antibody, MFI against Ab concentration (log [M])
[6] = biological target: cynomolgus CD161 (cynomolgus); assay: flow cytometry titration of antibody on Jurkat cynoCD161+ cells, fluorescent secondary antibody, MFI against concentration (log [M])

Human Clec12B (human), sequence (Q2HXU8 whole entry): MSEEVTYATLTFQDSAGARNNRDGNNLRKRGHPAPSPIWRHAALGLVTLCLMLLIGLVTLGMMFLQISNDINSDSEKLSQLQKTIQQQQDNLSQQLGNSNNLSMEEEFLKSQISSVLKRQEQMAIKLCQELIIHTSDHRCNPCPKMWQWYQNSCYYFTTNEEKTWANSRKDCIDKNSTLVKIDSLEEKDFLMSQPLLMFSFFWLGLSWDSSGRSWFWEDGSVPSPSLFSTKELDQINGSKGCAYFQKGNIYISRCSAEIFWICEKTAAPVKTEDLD
Human Clec5A (human), sequence (Q9NY25 whole entry): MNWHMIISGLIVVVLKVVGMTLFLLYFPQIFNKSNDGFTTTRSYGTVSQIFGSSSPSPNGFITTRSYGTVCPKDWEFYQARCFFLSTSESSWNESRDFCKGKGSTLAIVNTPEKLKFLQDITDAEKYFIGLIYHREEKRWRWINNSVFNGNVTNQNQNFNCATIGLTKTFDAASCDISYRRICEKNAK
Human Clec7A (human), sequence (Q9BXN2 whole entry): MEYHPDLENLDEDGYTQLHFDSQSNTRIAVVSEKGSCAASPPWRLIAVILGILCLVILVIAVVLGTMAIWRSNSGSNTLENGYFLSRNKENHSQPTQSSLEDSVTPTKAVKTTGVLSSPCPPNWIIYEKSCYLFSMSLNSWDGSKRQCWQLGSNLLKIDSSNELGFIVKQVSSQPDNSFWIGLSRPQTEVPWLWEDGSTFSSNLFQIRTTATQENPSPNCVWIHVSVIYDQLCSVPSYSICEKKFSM
Human KLRF2 (human), sequence (D3W0D1 whole entry): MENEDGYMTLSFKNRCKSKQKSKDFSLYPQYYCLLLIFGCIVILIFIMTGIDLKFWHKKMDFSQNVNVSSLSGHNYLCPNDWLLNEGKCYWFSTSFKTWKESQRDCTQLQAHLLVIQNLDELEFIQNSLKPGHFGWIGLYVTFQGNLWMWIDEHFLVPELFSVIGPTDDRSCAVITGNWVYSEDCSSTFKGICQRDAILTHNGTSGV
Human CD209 (human), sequence (Q9NNX6 whole entry): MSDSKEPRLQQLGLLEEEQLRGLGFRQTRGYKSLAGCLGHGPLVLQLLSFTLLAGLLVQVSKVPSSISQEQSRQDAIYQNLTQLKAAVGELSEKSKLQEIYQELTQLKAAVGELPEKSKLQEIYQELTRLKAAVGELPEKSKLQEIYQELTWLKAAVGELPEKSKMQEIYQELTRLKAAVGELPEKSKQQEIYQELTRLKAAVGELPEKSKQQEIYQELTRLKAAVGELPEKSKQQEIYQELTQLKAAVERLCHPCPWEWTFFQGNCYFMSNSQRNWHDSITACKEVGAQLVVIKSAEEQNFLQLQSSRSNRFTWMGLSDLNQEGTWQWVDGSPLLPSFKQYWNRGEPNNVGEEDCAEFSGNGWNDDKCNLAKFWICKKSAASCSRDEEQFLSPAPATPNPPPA

mouse anti-human CD161 antibody HP-3G10 was tested, and the MFI normalized to WT (Human Clec12B (human)) was 1.1, the MFI normalized to WT (Human Clec7A (human)) was 1.16 and the MFI normalized to WT (Human CD209 (human)) was 1.01. It also gave an MFI normalized to WT (Human Clec5A (human)) of 1.08, an MFI normalized to WT (Human KLRF2 (human)) of 1.07 and an MFI normalized to WT (Human Clec10A (human)) of 1. It also gave an MFI normalized to WT (Human KLRF1 (human)) of 0.94, an MFI normalized to WT (Human Clec9A (human)) of 1.09 and an MFI normalized to WT (Human OLR1 (human)) of 1.01. For the same substance, the MFI normalized to WT (human CD161 (human) [1]) was 75.2, the MFI normalized to WT [2] was 46.7 and the MFI normalized to WT (Human KLRG1 (human)) was 1.07. For the same substance, the MFI normalized to WT (Human CD94 (human)) was 1, the MFI normalized to WT (Human Clec4E (human)) was 1 and the Kd (human CD161 (human) [3]) was 1.67 nM. For the same substance, the Kd [4] was 1.18 nM, the EC50 (read off the curve) (human CD161 (human) [5]) was 2 nM and the EC50 (read off the curve) [6] was 1 nM.

— patent publication US20210122826A1
